# B1: Tsa1 (wild type) [S. cerevisiae] / HA-tagged Pyk1 (HA-Pyk1) [S. cerevisiae] (parent)
# chain 1: MVAQVQKQAPTFKKTAVVDGVFDEVSLDKYKGKYVVLAFIPLAFTFVCPTEIIAFSEAAKKFEEQGAQVLFASTDSEYSLLAWTNIPRKEGGLGPINIPLLADTNHSLSRDYGVLIEEEGVALRGLFIIDPKGVIRHITINDLPVGRNVDEALRLVEAFQWTDKNGTVLPCNWTPGAATIKPTVEDSKEYFEAANK
# chain 2: MSRLERLTSLNVVAGSDLRRTSIIGTIGPKTNNPETLVALRKAGLNIVRMNFSHGSYEYHKSVIDNARKSEELYPGRPLAIALDTKGPEIRTGTTTNDVDYPIPPNHEMIFTTDDKYAKACDDKIMYVDYKNITKVISAGRIIYVDDGVLSFQVLEVVDDKTLKVKALNAGKICSHKGVNLPGTDVDLPALSEKDKEDLRFGVKNGVHMVFASFIRTANDVLTIREVLGEQGKDVKIIVKIENQQGVNNFDEILKVTDGVMVARGDLGIEIPAPEVLAVQKKLIAKSNLAGKPVICATQMLESMTYNPRPTRAEVSDVGNAILDGADCVMLSGETAKGNYPINAVTTMAETAVIAEQAIAYLPNYDDMRNCTPKPTSTTETVAASAVAAVFEQKAKAIIVLSTSGTTPRLVSKYRPNCPIILVTRCPRAARFSHLYRGVFPFVFEKEPVSDWTDDVEARINFGIEKAKEFGILKKGDTYVSIQGFKAGAGHSNTLQVSTV
# Variants of: B1
# Test: pull-down (co-IP with anti-HA beads, anti-Tsa1 immunoblot, band quantification)
# Conditions: +DTT, lane 9, lysate 67 μg/lane and 111 μg/lane for HA-Pyk1 and Tsa1, parent: 1
row,Variant,ratio to parent
1,chain 1 C48T C171T,0.5

# Same assay, conditions: +DTT, lane 9, lysate 67 μg/lane and 111 μg/lane for HA-Pyk1 and Tsa1, parent: 3.1
row,Variant,screen value (% of Total Tsa1)
1,chain 1 C48T C171T,1.3

# Reference: article PMC5025857, “Redox-dependent Regulation of Gluconeogenesis by a Novel Mechanism Mediated by a Peroxidatic Cysteine of Peroxiredoxin” (Scientific Reports, 2016)
